Data as given in patent US20090214558A1 (Pfizer, published 2009).

T1: MAdCAM (analyte of the BIAcore experiment) (UniProt Q13477 19-317)
T1 construct: The antibodies are called anti-hMAdCAM; also called Mucosal addressin cell adhesion molecule
T1 sequence (looked up): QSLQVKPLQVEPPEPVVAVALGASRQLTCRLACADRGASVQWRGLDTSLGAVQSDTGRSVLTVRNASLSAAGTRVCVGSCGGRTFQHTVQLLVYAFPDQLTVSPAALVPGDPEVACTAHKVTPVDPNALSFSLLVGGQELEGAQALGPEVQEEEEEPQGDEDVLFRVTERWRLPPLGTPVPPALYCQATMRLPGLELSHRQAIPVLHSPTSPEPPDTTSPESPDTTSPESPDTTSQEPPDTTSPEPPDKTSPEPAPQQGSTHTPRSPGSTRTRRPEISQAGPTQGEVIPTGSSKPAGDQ


How the values were obtained:
[1] = biological target: T2, MAdCAM-IgG1 Fc fusion protein; assay: MAdCAM-IgG1 Fc fusion: JY cell binding assay (inhibition of JY cell adhesion)
T2 construct: Made in CHO-DHFR cells and coated on plates at 4.5 µg/mL

[2] = biological target: T2, MAdCAM-IgG1 Fc fusion protein; assay: inhibition of adhesion of calcein-loaded JY cells to plate-coated MAdCAM-IgG1 Fc fusion (fluorescence)
Method: The cells were washed twice with RPMI 1640 media (Gibco) containing 2 mM L-glutamine (Gibco) by centrifugation (240 g), resuspending the final cell pellet at 2×10⁶ cells/mL in RPMI 1640 for Calcein AM loading. Calcein AM (Molecular Probes #C-3099) was added to the cells as a 1:200 dilution in DMSO (ca. final concentration 5 μM) and the cells protected from light during the course of the incubation (37° C. for 30 min). During this cell incubation step the antibodies to be tested, were diluted as follows: for single dose testing, the antibodies were made up to 3 μg/mL (1 μg/mL final) in 0.1 mg/mL BSA (Sigma#A3059) in PBS; for full IC₅₀ curves, the antibodies were diluted in 0.1 mg/mL BSA/PBS, with 3 μg/mL (1 μg/mL final) being the top concentration, then doubling dilutions (1:2 ratio) across the plate. The final well of the row was used for determining total binding, so 0.1 mg/ml BSA in PBS was used.
After blocking, the plate contents were flicked out and 50 μL of antibodies/controls were added to each well and the plate incubated at 37° C. for 20 min. During this time, Calcein-loaded JY cells were washed once with RPMI 1640 media containing 10% fetal bovine serum and once with 1 mg/mL BSA/PBS by centrifugation, resuspending the final cell pellet to 1×10⁶/mL in 1 mg/mL BSA/PBS. 100 μL of cells were added to each well of the U bottomed plate, the plate sealed, briefly centrifuged (1000 rpm for 2 min) and the plate then incubated at 37° C. for 45 min. At the end of this time, the plates were washed with a Skatron plate washer and fluorescence measured using a Wallac Victor² 1420 Multilabel Reader (excitation λ485 nm, emission λ535 nm count from top, 8 mm from bottom of plate, for 0.1 sec with normal emission aperture). For each antibody concentration, percent adhesion was expressed as a percentage of maximal fluorescence response in the absence of any antibody minus fluorescence associated with non-specific binding. The IC₅₀ value is defined as the anti-MAdCAM antibody concentration at which the adhesion response is decreased to 50% of the response in the absence of anti-MAdCAM antibody. Antibodies that were able to inhibit the binding of JY cells to MAdCAM-IgG₁ Fc fusion with an IC₅₀ value <0.1 μg/mL, were considered to have potent antagonist activity and were progressed to the MAdCAM-CHO adhesion assay.
Target sequence in this assay (chain, as listed by the source limits assumed): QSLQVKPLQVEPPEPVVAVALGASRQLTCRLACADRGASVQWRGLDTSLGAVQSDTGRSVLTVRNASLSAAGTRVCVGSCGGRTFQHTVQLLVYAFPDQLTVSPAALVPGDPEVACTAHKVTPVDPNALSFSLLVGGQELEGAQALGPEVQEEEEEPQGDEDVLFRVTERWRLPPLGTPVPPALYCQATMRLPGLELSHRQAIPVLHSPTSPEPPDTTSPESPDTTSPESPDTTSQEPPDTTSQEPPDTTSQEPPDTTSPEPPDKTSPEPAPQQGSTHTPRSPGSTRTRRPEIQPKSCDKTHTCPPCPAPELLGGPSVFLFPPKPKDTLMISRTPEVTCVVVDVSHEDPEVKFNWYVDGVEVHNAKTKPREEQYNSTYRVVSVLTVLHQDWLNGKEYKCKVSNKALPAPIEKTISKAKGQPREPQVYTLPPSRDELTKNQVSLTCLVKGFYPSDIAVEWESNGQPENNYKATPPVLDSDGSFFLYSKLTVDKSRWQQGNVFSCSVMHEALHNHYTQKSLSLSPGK

[3] = biological target: T1, MAdCAM (analyte of the BIAcore …); assay: BIAcore (SPR); antibody immobilised, MAdCAM injected
[4] = biological target: T1, MAdCAM (analyte of the BIAcore …); assay: BIAcore (SPR); KD restated from the instrument's off-rate limit; the footnote says 7.16.6_V, but the ka used and the asterisk belong to 7.16.6_S; KD bound restated from the BIAcore off-rate limit (5 × 10^-6 s^-1), not the fitted 23.2 pM
[5] = biological target: T1, MAdCAM (analyte of the BIAcore …); assay: BIAcore (SPR); antibody immobilised, MAdCAM injected; footnote: below the instrument's lower limit of 5 × 10^-6 s^-1

| IC50 [1] [µg/mL] | IC50 [2] [µg/mL] | Kd [3] [nM] | koff [3] [s⁻¹] | kon [3] [M⁻¹ s⁻¹] | Binder | further results |
| --- | --- | --- | --- | --- | --- | --- |
| 0.018 |  |  |  |  | 6.22.2 (antibody, V domains shown) VH: QVQLVESGGGVVQPGRSLRLSCAASGHTFSSDGMHWVRQAPGKGLEWVAIIWYDGSNKYYADSVKGRFTISRDNSKNTLYLQMNSLRAEDTAVYYCARDPGYYYGMDVWGQGTTVTVSS VL: EIVLTQSPDFQSVTPKEKVTITCRASQRIGSSLHWYQQKPDQSPKLLIKYASQSFSGVPSRFSGSGSGTNFTLTINGLEAEDAATYYCHQSGRLPLTFGGGTKVEIKR |  |
| 0.076 |  |  |  |  | 6.22.2-mod_V (antibody, human IgG2, kappa, V domains shown, Purified recombinant antibody) VH: QVQLVESGGGVVQPGRSLRLSCAASGFTFSSDGMHWVRQAPGKGLEWVAVIWYDGSNKYYADSVKGRFTISRDNSKNTLYLQMNSLRAEDTAVYYCARDPGYYYGMDVWGQGTTVTVSS VL: EIVLTQSPDFQSVTPKEKVTITCRASQRIGSSLHWYQQKPDQSPKLLIKYASQSFSGVPSRFSGSGSGTDFTLTINSLEAEDAATYYCHQSGRLPLTFGGGTKVEIKR |  |
| 0.013 |  |  |  |  | 6.34.2 (antibody, V domains shown) VH: QVQLVESGGGVVQPGRSLRLSCAASGFTFSSYGMHWVRQAPGKGLEWVAVISNDGNNKYYADSVKGRFTISRDNSKNTLYLQMNSLSAEDTAVYYCARDSTAITYYYYGMDVWGQGTTVTVSS VL: DIQMTQSPSSLSASVGDRVTITCRASQNISSYLNWFQQKPGKAPKLLIYAASGLKRGVPSRFSGSGSGTDFTLTIRTLQPDDFATYSCHQSYSLPFTFGPGTKVDIKR |  |
| 0.086 |  |  |  |  | 6.34.2-mod_SSQ (antibody, human IgG2, kappa, V domains shown, Purified recombinant antibody) VH: QVQLVESGGGVVQPGRSLRLSCAASGFTFSSYGMHWVRQAPGKGLEWVAVISNDGNNKYYADSVKGRFTISRDNSKNTLYLQMNSLRAEDTAVYYCARDSTAITYYYYGMDVWGQGTTVTVSS VL: DIQMTQSPSSLSASVGDRVTITCRASQSISSYLNWYQQKPGKAPKLLIYAASSLSQGVPSRFSGSGSGTDFTLTISSLQPEDFATYYCHQSYSLPFTFGPGTKVDIKR |  |
|  | 0.0356 | 0.0795 | 1.21e-05 | 152000 | 7.16.6_L (antibody, V domains shown, The light chain is the parent 7.16.6 kappa chain, rebuilt as for m1; also called 7.16.6_L variant) VH: QVQLVQSGAEVKKPGASVKVSCKASGYTFTSYGINWVRQAPGQGLEWMGWISVYSGNTNYAQKLQGRVTMTADTSTSTAYMDLRSLRSDDTAVYYCAREGSSSSGDYYYGMDVWGQGTTVTVSS VL: DIVMTQTPLSLSVTPGQPASISCKSSQSLLHTDGTTYLYWYLQKPGQPPQLLIYEVSNRFSGVPDRFSGSGSGTDFTLKISRVEAEDVGIYYCMQNIQLPWTFGQGTKVEIKR |  |
|  | 0.0582 | 0.0908 | 2.18e-05 | 240000 | 7.16.6_VS (antibody, human IgG2, kappa, V domains shown, Recombinant, from transiently transfected FreeStyle HEK293 cells; also called 7.16.6_VS adduct) VH: QVQLVQSGAEVKKPGASVKVSCKASGYTFTSYGINWVRQAPGQGLEWMGWISVYSGNTNYAQKVQGRVTMTADTSTSTAYMDLRSLRSDDTAVYYCAREGSSSSGDYYYGMDVWGQGTTVTVSS VL: DIVMTQTPLSLSVTPGQPASISCKSSQSLLHTDGTTYLYWYLQKPGQPPQLLIYEVSNRFSGVPDRFSGSGSGTDFTLKISRVEAEDVGVYYCMQSIQLPWTFGQGTKVEIKR |  |
|  | 0.0412 | 0.162 | 2.49e-05 | 153000 | 7.16.6_V (antibody, human IgG2, kappa, V domains shown, Recombinant, from transiently transfected FreeStyle HEK293 cells; also called 7.16.6_V adduct) VH: QVQLVQSGAEVKKPGASVKVSCKASGYTFTSYGINWVRQAPGQGLEWMGWISVYSGNTNYAQKVQGRVTMTADTSTSTAYMDLRSLRSDDTAVYYCAREGSSSSGDYYYGMDVWGQGTTVTVSS VL: DIVMTQTPLSLSVTPGQPASISCKSSQSLLHTDGTTYLYWYLQKPGQPPQLLIYEVSNRFSGVPDRFSGSGSGTDFTLKISRVEAEDVGVYYCMQNIQLPWTFGQGTKVEIKR |  |
|  | 0.0342 | 0.0232 |  | 183000 | 7.16.6_S (antibody, human IgG2, kappa, V domains shown, Recombinant, from transiently transfected FreeStyle HEK293 cells; also called 7.16.6-5; 7.16.6_5) VH: QVQLVQSGAEVKKPGASVKVSCKASGYTFTSYGINWVRQAPGQGLEWMGWISVYSGNTNYAQKVQGRVTMTADTSTSTAYMDLRSLRSDDTAVYYCAREGSSSSGDYYYGMDVWGQGTTVTVSS VL: DIVMTQTPLSLSVTPGQPASISCKSSQSLLHTDGTTYLYWYLQKPGQPPQLLIYEVSNRFSGVPDRFSGSGSGTDFTLKISRVEAEDVGIYYCMQSIQLPWTFGQGTKVEIKR | Kd [4]: < 0.0273 nM; koff [5]: 4.27e-06 s⁻¹ |
|  | 0.0458 | 0.119 | 2.31e-05 | 194000 | 7.16.6_LVS (antibody, human IgG2, kappa, V domains shown, Recombinant, from transiently transfected FreeStyle HEK293 cells) VH: QVQLVQSGAEVKKPGASVKVSCKASGYTFTSYGINWVRQAPGQGLEWMGWISVYSGNTNYAQKLQGRVTMTADTSTSTAYMDLRSLRSDDTAVYYCAREGSSSSGDYYYGMDVWGQGTTVTVSS VL: DIVMTQTPLSLSVTPGQPASISCKSSQSLLHTDGTTYLYWYLQKPGQPPQLLIYEVSNRFSGVPDRFSGSGSGTDFTLKISRVEAEDVGVYYCMQSIQLPWTFGQGTKVEIKR |  |
| 0.013 |  |  |  |  | 6.67.1 (antibody, V domains shown) VH: QVQLQESGPGLVKPSETLSLTCTVSGDSISSNYWSWIRQPAGKGLEWIGRIYTSGGTNSNPSLRGRVTILADTSKNQFSLKLSSVTAADTAVYYCARDRITIIRGLIPSFFDYWGQGTLVTVSS VL: not shown |  |
| 0.063 |  |  |  |  | 6.67.1-mod_Y (antibody, V domains shown) VH: QVQLQESGPGLVKPSETLSLTCTVSGDSISSNYWSWIRQPAGKGLEWIGRIYTSGGTNSNPSLRGRVTMSVDTSKNQFSLKLSSVTAADTAVYYCARDRITIIRGLIPSFFDYWGQGTLVTVSS VL: not shown |  |
| 0.072 |  |  |  |  | 9.8.2-mod_ΔRGAYH,D (antibody, human IgG4, kappa, V domains shown, Purified recombinant antibody; The heavy-chain constant region as printed is IgG4-like; also called 9.8.2_ΔRGAYH,D) VH: QVQLVESGGGVVQPGRSLRLSCAASGFTFSSYGMHWVRQAPGKGLEWVAVIWYDGSNEYYADSVKGRFTISRDNSKNTLYLQMNSLRAEDTAVYYCAFDYWGQGTLVTVSS VL: DIQMTQSPSSLSASVGDRVTITCQASQDISNYLNWYQQKPGKAPKLLIYDASNLETGVPSRFSGSGSGTDFTFTISSLQPEDIATYSCQHSDNLITFGQGTRLEIKR |  |
| 0.0485 |  |  |  |  | 6.77.1-mod_ΔS (antibody, human IgG2, kappa, V domains shown, Purified recombinant antibody; also called 6.77.1-mod_ΔAS) VH: EVQLVESGGGLVKPGGSLRLSCAASGFTFSSYSMNWVRQAPGKGLEWVSSISSSSSYIYYADSVKGRFTISRDNAKNSLYLQMNSLRAEDTAVYYCARDGYSSGWYYYYYGMDVWGQGTTVTVSS VL: DIVMTQTPLSLSVTPGQPASISCKSSQSLLLSDGKTYLNWYLQKPGQPPQLLIYEVSNRFSGVPDRFSGSGSGTDFTLKISRVEAEDVGVYSCMQSIQLMSSFGQGTKLEIKR |  |
